From publication PMC7136553 come the findings set out here.

Experiment [1] deals with C3(x)2 from methylamine treated C3 (peak 3 of the MonoS cation exchange column) (human) (UniProt P01024).
The target in experiment [2] is C3(x)1 from methylamine treated C3 (peak 2 of the MonoS cation exchange column) (human) (UniProt P01024).
A further experiment deals with C3b (human) (UniProt P01024).

With Factor B (natural protein), the FB remaining after addition of FD (Wes immunoassay with a mAb to Bb), 1-120 min at 37°C in VB++: all at 1–5 min, 90% at 15 min, 60% at 120 min in experiment [1] turned out to be 90%. In addition, the FB remaining after addition of FD (Wes immunoassay with a mAb to Bb), 1-120 min at 37°C in VB++: practically all at 1 min, 85% at 5 min, 60% at 15 min, 30–40% at 60–120 min in experiment [2] came out at 85%. The substance further yielded an FB remaining after addition of FD (Wes immunoassay with a mAb to Bb), 1-120 min at 37°C in VB++: 90% at 1 min, ca. 60% at 5 min, 25% at 15 min, almost all consumed at 30 min in the experiment with C3b (human) of 90%.
